Results as given in publication PMC5036187 (Scientific Reports, 2016).
Residue numbers refer to the chain shown, from its start.

B1: humanized YP7 antibody, IgG format (human IgG1 kappa) (antibody, V domains shown)
VH: EVQLVESGGGLVQPGGSLRLSCAASGFTFNKNAMNWVRQAPGKGLEWVGRIRNKTNNYATYYADSVKARFTISRDDSKNSLYLQMNSLKTEDTAVYYCVAGNSFAYWGQGTLVTVS
VL: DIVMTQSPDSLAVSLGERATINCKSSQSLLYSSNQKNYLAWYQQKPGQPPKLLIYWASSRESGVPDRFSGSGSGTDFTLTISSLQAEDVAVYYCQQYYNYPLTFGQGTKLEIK
notes: also called hYP7; hYP7 IgG
B2: humanized YP9.1b antibody, IgG format (human IgG1 kappa) (antibody, V domains shown)
VH: B1 VH with T28N, K31T, I51V, A68D
VL: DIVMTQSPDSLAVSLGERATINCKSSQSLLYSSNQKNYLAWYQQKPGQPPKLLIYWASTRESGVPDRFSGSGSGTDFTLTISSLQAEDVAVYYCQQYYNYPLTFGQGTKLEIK
notes: also called hYP9.1b; hYP9.1b IgG

Target: T1, Glypican-3 (GPC3) on G1 cells (Homo sapiens, UniProt P51654)
T1 construct: also called GPC3+ cells (G1)
Test: flow cytometry on cells
Conditions: one partner purified

T1 sequence (P51654 25-580): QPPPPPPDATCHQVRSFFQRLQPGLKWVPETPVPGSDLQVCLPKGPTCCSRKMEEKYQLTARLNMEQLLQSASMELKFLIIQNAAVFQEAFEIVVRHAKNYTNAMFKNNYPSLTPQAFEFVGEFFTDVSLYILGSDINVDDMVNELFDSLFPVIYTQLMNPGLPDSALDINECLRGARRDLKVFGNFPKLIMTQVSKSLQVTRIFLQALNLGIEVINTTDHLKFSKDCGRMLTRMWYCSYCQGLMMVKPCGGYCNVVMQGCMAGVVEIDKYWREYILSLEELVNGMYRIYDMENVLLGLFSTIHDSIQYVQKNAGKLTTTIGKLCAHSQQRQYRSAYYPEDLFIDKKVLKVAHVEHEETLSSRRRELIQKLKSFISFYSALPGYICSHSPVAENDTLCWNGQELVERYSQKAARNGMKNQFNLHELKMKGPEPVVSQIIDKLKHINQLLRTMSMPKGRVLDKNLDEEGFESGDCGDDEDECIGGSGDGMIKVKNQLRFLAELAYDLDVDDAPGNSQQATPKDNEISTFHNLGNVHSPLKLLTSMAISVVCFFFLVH

Binder	EC50
B1	0.7 nM
B2	0.4 nM
